This experiment has as its target BD-G72(95-153) (UniProt P59103). In words: two-hybrid; β-galactosidase activity of AH109 transformants grown in SD/-2 broth at 30 °C, normalised to yeast with the AD and BD tags alone.

Chain of BD-G72(95-153) (P59103 95-153): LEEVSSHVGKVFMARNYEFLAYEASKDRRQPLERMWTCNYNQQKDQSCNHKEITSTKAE

The substance “AD-DAO (D-amino acid oxidase N-terminally tagged with the activation domain) (from UniProt P14920 1-347) (enzyme)” displayed a β-galactosidase activity as percent of AD-DAO/BD-G72 of 38% and a β-galactosidase activity relative to the BD/AD tag baseline of 1.81 fold.
